Measurements as given in patent US20200399381A1 (I MAB BIOPHARMA US, published 2020).
Numbering of substitutions follows the chain as printed.

Assays:
[1] = target: T1, recombinant His-tagged human IFNAR-1-ECD protein (human, UniProt P17181 28-436); assay: ELISA, coated His-tagged IFNAR-1
T1 construct: extracellular domain; the Biacore text says His-tagged human IFNAR-1-ECD; also called His-tagged IFNAR-1; hIFNAR-1 protein; not shown: His tag
T1 sequence (looked up): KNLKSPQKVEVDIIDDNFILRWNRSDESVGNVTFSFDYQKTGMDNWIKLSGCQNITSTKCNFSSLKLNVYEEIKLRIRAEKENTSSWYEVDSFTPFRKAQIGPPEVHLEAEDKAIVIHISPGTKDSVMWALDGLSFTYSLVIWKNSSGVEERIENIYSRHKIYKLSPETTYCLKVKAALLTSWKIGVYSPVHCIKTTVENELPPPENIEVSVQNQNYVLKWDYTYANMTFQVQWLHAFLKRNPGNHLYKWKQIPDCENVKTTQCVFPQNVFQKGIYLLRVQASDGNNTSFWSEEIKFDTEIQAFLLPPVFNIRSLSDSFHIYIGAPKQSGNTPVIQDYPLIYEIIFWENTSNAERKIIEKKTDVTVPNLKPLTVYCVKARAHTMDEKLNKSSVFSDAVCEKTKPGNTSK
Procedure: This example tested the binding properties of the anti-IFNAR-1 mouse antibodies to the human IFNAR-1 proteins by ELISA assay. In short, His-tagged IFNAR-1 was coated at 0.5 μg/ml overnight and then blocked by 5% BSA in PBS. Serial diluted anti-IFNAR-1 antibodies were incubated with the coated antigen for 1 h at room temperature. The resulting plates were washed with PBS/T and incubated with goat anti-mouse IgG-HRP for 1 h at room temperature. The plates were developed with TMB substrate and analyzed by spectrophotometer at OD 450-630 nm.

human IFNAR-1 on cells = target: T2, human IFNAR-1 on cells (human, UniProt P17181 28-557); assay: cell-based or functional assay
T2 sequence (looked up): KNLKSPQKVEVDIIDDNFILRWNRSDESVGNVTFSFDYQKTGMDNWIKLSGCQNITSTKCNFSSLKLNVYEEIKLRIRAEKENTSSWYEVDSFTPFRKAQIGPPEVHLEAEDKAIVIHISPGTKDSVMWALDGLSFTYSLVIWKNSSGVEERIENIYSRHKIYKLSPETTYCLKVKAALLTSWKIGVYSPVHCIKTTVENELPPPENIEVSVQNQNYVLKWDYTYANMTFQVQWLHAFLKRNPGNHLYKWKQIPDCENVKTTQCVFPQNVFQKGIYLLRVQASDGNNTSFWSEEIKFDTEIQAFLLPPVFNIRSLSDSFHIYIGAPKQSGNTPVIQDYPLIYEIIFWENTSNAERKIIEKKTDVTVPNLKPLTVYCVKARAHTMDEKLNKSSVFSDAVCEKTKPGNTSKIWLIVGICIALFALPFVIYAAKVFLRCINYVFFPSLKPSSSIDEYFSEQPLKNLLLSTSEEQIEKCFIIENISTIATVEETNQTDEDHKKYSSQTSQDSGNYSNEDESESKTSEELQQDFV

[2] = target: T3, human IFNAR-1 protein (form not stated) (human, UniProt P17181 28-436, limits assumed); assay: affinity ranking of expressed humanized 485G10 IgGs (method not named)
T3 construct: bispecific ELISA
T3 sequence (looked up): T1 sequence (looked up)

[3] = target: T3, human IFNAR-1 protein (form not stated); assay: affinity measurement of purified IgG at different concentrations (method not named)
[4] = target: T3, human IFNAR-1 protein (form not stated); assay: affinity ranking of expressed humanized 8G11 IgGs (method not named)
[5] = target: T3, human IFNAR-1 protein (form not stated); assay: affinity measurement of purified IgG at different concentrations (method not named); remark: listed apart in the source

B1: 370E5 (antibody, V domains shown)
VH: EVQLQQSGAELVKPGASVKLSCTASGFNIKDYYIHWVKQRTEQGLEWIGRIDPEDGETKYAPKFQGKATITADTSSNTAYLQLSSLTSEDTAVYYCARFGGLTAMDYWGQGTSVTVSS
VL: DIVMTQSQKFMSTSVGDRVSVTCKASQNVGTNVAWYQQKPGQSPKALIYATSYRYSGVPDRFTGSGSGTDFTLTISNVQSEDLAEYFCQQYNNYPYTFGGGTKLEIK
notes: Hybridoma-derived monoclonal antibody
- EC50 [1]: 52 pM
- EC50 (nM), inhibition of IFNα2b-induced SEAP reporter in HEK-Blue IFNα/β cells (human IFNAR-1 on cells): 2.17 nM

B2: 392D6 (antibody, V domains shown)
VH: B1 VH with E1A, A9T, T23S, I34V, R40K, I70V, L81M, A97T, T103D
VL: B1 VL with A46P, A50S, S56N, D70E, Y91F, N93R
notes: as for B1
- EC50 [1]: 54 pM
- EC50 (nM), inhibition of IFNα2b-induced SEAP reporter in HEK-Blue IFNα/β cells (human IFNAR-1 on cells): 0.824 nM

B3: 402G3 (antibody, V domains shown)
VH: QVQLQQSGAELVKPGSSVKISCKASGFTFTSHFIHWIKQQPGNGLKWIGWIYPGDDDTEYNHKFNGKATLTADKSSSTAYMHLSSLTSEDSAVYFCARRVEYYNGGFAYWGQGTLVTVSS
VL: DVQMTQSPSYLAAPPGESVSISCKASKNIRNNLGWYQERPGKTPNLLIHSGSTLQSGAPSRFSGGGSGTDFTLTIRSLESEDSAVYYCQQYDQYPLTFGSGTKLEIK
notes: as for B1
- EC50 [1]: 137 pM
- EC50 (nM), inhibition of IFNα2b-induced SEAP reporter in HEK-Blue IFNα/β cells (human IFNAR-1 on cells): 1.27 nM

B4: 430H6 (antibody, V domains shown)
VH: QVTLKESGPGILQPSQTLSLTCTFSGFSLNTYGMGVGWIRQPSGKGLEWLANIWWDDDKYYNPSLKNRLTISKDTSNNQAFLKITNVDTADTATYFCARHPLPGYKDNYVVDAWGQGASVTVSS
VL: DVVLTQTPGSLSVTLGDQASISCRSSQSLEYSDQYTYLEWYLQKSGQSPQLLIYGVSNRFSGVPDRFIGSGSGTDFTLKISRVEPEDLGVYYCFQATHDPYTFGAGTKLELK
notes: as for B1
- EC50 [1]: 733 pM
- EC50 (nM), inhibition of IFNα2b-induced SEAP reporter in HEK-Blue IFNα/β cells (human IFNAR-1 on cells): 1.3 nM

B5: 485G10 (antibody, V domains shown)
VH: B1 VH with A24G, A92V, A97G, F99Y, G100H, L102Y, T103W, M105L
VL: B1 VL with A25T, A46P, A50S, T74I, Q89H, N92F, N93S, K103L
notes: Hybridoma-derived monoclonal antibody; also called mouse antibody 485G10
- EC50 [1]: 15 pM
- EC50 (nM), inhibition of IFNα2b-induced SEAP reporter in HEK-Blue IFNα/β cells (human IFNAR-1 on cells): 0.286 nM

B6: 487E3 (antibody, V domains shown)
VH: EVQLQQSGAELVKPGASVKLSCSASGFNIKDCYIHWVKQRTEQGLEWIGRIDPEDGETKYAPKFQAKATITADTSSNTAYLQLNSLTSEDTAVYYCARHCNFLYFDYWGQGSTLTVS
VL: DIVMTQSQKSMSTSLGDRVTVTCKASQNVGTIVAWYQLKPGQSPKTLIYSASYRSSGVPDRFTGSGSGTDFTLTISNVQSEDLAEYFCQQYNNYPVIFGSGTKLEIR
notes: as for B1
- EC50 [1]: 28 pM
- EC50 (nM), inhibition of IFNα2b-induced SEAP reporter in HEK-Blue IFNα/β cells (human IFNAR-1 on cells): 0.161 nM

B7: 104A3 (antibody, V domains shown)
VH: EVQLQQSGAELVKPGASVKVSCTGSGFNIKDYYIHWVKQRTEQGLEWIGRIDPEDGETKYAPKFQGKATITSDTSSNTAYLQLSSLTSGDTAVYFCARYDGYYCFDYWGQGTTLTVSS
VL: B1 VL with A46P, A50S, E81A, E85A, K103R
notes: as for B1
- EC50 [1]: 56 pM
- EC50 (nM), inhibition of IFNα2b-induced SEAP reporter in HEK-Blue IFNα/β cells (human IFNAR-1 on cells): 1.31 nM

B8: 124D12 (antibody, V domains shown)
VH: B7 VH with K67R, F95Y
VL: B1 VL with A46P, A50S, E81A, E85A, K103R
notes: as for B1
- EC50 [1]: 62 pM
- EC50 (nM), inhibition of IFNα2b-induced SEAP reporter in HEK-Blue IFNα/β cells (human IFNAR-1 on cells): 0.981 nM

B9: 106A7 (antibody, V domains shown)
VH: EVQLQQSGADLVKPGASVKLSCTTSGFNIKDYYMHWVNQRTEQGLEWIGRIDPEDGETKYAPKFQGKATITADTSSNTAYLQLSSLTSEDTAVYYCARDWGHSFDYWGQGTTLTVSS
VL: DIVMTQSQKFMSTSVGDRVSVTCKASQNVGTTVAWYQQKPGQSPKTLIYSASYRYSGVPDRFTGSGSGTDFTLTISNVQSEDLAEYFCQQYNSYTFGGGTKLEMK
notes: as for B1
- EC50 [1]: 99 pM
- EC50 (nM), inhibition of IFNα2b-induced SEAP reporter in HEK-Blue IFNα/β cells (human IFNAR-1 on cells): 3.52 nM

B10: 107E12 (antibody, V domains shown)
VH: EVQLQQSGAEFVKPGASVKLSCTASGFNIKDYYIHWVTQKTEQGLEWIGRIDPEDGETKYAPKFQDKATITADSSSNTAYLQLSSLTSVDTAVYFCSREGSFTGWFPYWGQGTLVSVSA
VL: B1 VL with S26R, N28S, N32Y, A50S, S56N, E85D, N92H, N93S
notes: as for B1
- EC50 [1]: 75 pM
- EC50 (nM), inhibition of IFNα2b-induced SEAP reporter in HEK-Blue IFNα/β cells (human IFNAR-1 on cells): 1.21 nM

B11: 485G10-H1L3 (antibody, V domains shown)
VH: QVQLVQSGAEVKKPGASVKVSCKASGFNIKDYYIHWVRQAPGQGLEWMGRIDPEDAETKYAPKFQGRVTMTADTSISTAYMELSRLRSDDTVVYYCARYHGYWALDYWGQGTLVTVSS
VL: DIQMTQSPSSLSTSVGDRVTITCKTSQNVGTNVAWYQQKPGKAPKPLIYSTSYRYSGVPSRFSGSGSGTDFTLTISSVQPEDFATYYCHQYFSYPYTFGPGTKLDIK
notes: Humanized IgG expressed in HEK293; also called VH1 + VL3 (485G10)
- Kd [2]: 325 pM
- koff [2]: 0.000101 s⁻¹
- kon [2]: 311000 M⁻¹ s⁻¹
- Kd [3]: 1240 pM
- koff [3]: 0.000232 s⁻¹
- kon [3]: 187000 M⁻¹ s⁻¹

B12: 485G10-H1L2 (antibody, V domains shown)
VH: B11 VH
VL: B11 VL with V78L, L104V
notes: Humanized IgG expressed in HEK293; also called VH1 + VL2 (485G10)
- Kd [2]: 652 pM
- koff [2]: 0.000201 s⁻¹
- kon [2]: 308000 M⁻¹ s⁻¹
- Kd [3]: 1550 pM
- koff [3]: 0.000321 s⁻¹
- kon [3]: 207000 M⁻¹ s⁻¹

B13: 485G10-H1L4 (antibody, V domains shown)
VH: B11 VH
VL: B11 VL with I21V
notes: Humanized IgG expressed in HEK293; also called VH1 + VL4 (485G10)
- Kd [2]: 660 pM
- koff [2]: 0.000216 s⁻¹
- kon [2]: 327000 M⁻¹ s⁻¹
- Kd [3]: 1320 pM
- koff [3]: 0.000259 s⁻¹
- kon [3]: 196000 M⁻¹ s⁻¹

B14: 485G10-H2L3 (antibody, V domains shown)
VH: B11 VH with V20L, R38K, M48I, A97G
VL: B11 VL
notes: Humanized IgG expressed in HEK293; also called VH2 + VL3 (485G10)
- Kd [2]: 848 pM
- koff [2]: 0.000238 s⁻¹
- kon [2]: 281000 M⁻¹ s⁻¹
- Kd [3]: 1960 pM
- koff [3]: 0.000366 s⁻¹
- kon [3]: 186000 M⁻¹ s⁻¹

B15: 8G11-H2L1 (antibody, V domains shown)
VH: QVQLVQSGAEVVKPGASVKVSCKGSGFNIKDYYMHWVRQAPGQGLEWIGRIDPEDAETKYAPKFQGRVTMTADTSTSTVYMELSSLRSEDTAVYYCARGGNFYVMDYWGQGTLVTVSS
VL: DIQLTQSPSFLSASVGDRVTITCKASQNVGTNVVWYQQKPGKAPKLLIYSASYRVSGVPSRFSGSGSGTEFTLTISSLQPEDFATYYCQQKNNYPYTFGQGTKLEIK
notes: Humanized IgG expressed in HEK293; also called VH2 + VL1 (8G11)
- Kd [4]: 439 pM
- koff [4]: 8.84e-05 s⁻¹
- kon [4]: 202000 M⁻¹ s⁻¹
- Kd [5]: 403 pM
- koff [5]: 9.24e-05 s⁻¹
- kon [5]: 229000 M⁻¹ s⁻¹

B16: 8G11-H2L2 (antibody, V domains shown)
VH: B15 VH
VL: B15 VL with A13T, A43S, L46V, T74I
notes: Humanized IgG expressed in HEK293; also called VH2 + VL2 (8G11)
- Kd [4]: 328 pM
- koff [4]: 9.42e-05 s⁻¹
- kon [4]: 287000 M⁻¹ s⁻¹
- Kd [5]: 419 pM
- koff [5]: 0.000125 s⁻¹
- kon [5]: 298000 M⁻¹ s⁻¹

B17: 8G11-H4L3 (antibody, V domains shown)
VH: B15 VH with V20L, R38K, V68A, M70I, V79A, M81L
VL: B15 VL with A13T, A43S, L46V, T74I, L78V, Y87F
notes: Humanized IgG expressed in HEK293; also called VH4 + VL3 (8G11)
- Kd [4]: 284 pM
- koff [4]: 8.52e-05 s⁻¹
- kon [4]: 301000 M⁻¹ s⁻¹
- Kd [5]: 220 pM
- koff [5]: 7.47e-05 s⁻¹
- kon [5]: 340000 M⁻¹ s⁻¹
